The nature of this series: protein stability index of a GFP-peptide fusion (GPS, HEK-293T) (PSI 1-6); higher = more stable. To be noted: c terminus: a fixed tail appended.

± gives the standard deviation.
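Further: 24-mer peptide tiles fused after GFP, lentivirally expressed, FACS-sorted into six equal bins by GFP/DsRed ratio, decoded by Illumina sequencing, PSI is the read-weighted mean bin number.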

For DYSDHPSGGSYRDSYESYGNSRSA [RBMX], the protein stability index is, setting by setting: (treatment: DMSO) 4.43 ± 0.36; (treatment: MLN4924 1 uM, 8 h) 4.44 ± 0.26.

Consider DYSHRQKEQDVEKELRDGGEQDTW [NFE2L1], for which the protein stability index came out at 5.63 ± 0.5 (treatment: DMSO) and 5.46 ± 0.44 (treatment: MLN4924 1 uM, 8 h).

Take EAIPILRAALKLEPSNKTIHAELS [FKBP8]: the protein stability index by setting is: (treatment: DMSO) 2.49 ± 0.32; (treatment: MLN4924 1 uM, 8 h) 2.65 ± 0.14.

In the case of EAVESRGGVPGGCVLVPRADLRLG [SMAD6], the protein stability index (treatment: DMSO) is 4.07 ± 0.47 and the protein stability index (treatment: MLN4924 1 uM, 8 h) amounted to 4.34 ± 0.17.

For the sequence ECKKLFQVPEEMSRCRNSYTEQEL [DLC1], the protein stability index by setting is: (treatment: DMSO) 3.76 ± 0.092; (treatment: MLN4924 1 uM, 8 h) 4 ± 0.22.

On to ECTQMDHLGCMHYTVRAPVGVAGL [ALDH8A1], for which the protein stability index was 2.51 ± 0.37 (treatment: DMSO) and 2.68 ± 0.36 (treatment: MLN4924 1 uM, 8 h).

Regarding EDEGFLREEERPLPRRDFQRQVWL [KCNA3], the protein stability index was 3.97 ± 0.1 (treatment: DMSO) and 4 ± 0.4 (treatment: MLN4924 1 uM, 8 h).

In the case of EDFTNTLRELGHAEHEITELTATF [PKD2L1], the protein stability index reads like this: (treatment: DMSO) 4.43 ± 0.34; (treatment: MLN4924 1 uM, 8 h) 4.22 ± 0.091.

EDILNDPSQSEVMGEPHLMVEYKL [POMP] displayed a protein stability index (treatment: DMSO) of 3.7 ± 0.17 and a protein stability index (treatment: MLN4924 1 uM, 8 h) of 3.72 ± 0.18.

EDQEEWHAQVVEELSNFKSQKVLG [ZBED1] yielded a protein stability index (treatment: DMSO) of 5.41 ± 0.21 and a protein stability index (treatment: MLN4924 1 uM, 8 h) of 5.54 ± 0.21.

In the case of EDQKLQVLLTQIESKKHQVETAFE [TRIM15], the protein stability index is, setting by setting: (treatment: DMSO) 4.29 ± 0.22; (treatment: MLN4924 1 uM, 8 h) 4.51 ± 0.29.

As to EDRIVTQNRVFAYLCKRVPHTVLD [CEP70], the protein stability index reads like this: (treatment: DMSO) 2.27 ± 0.2; (treatment: MLN4924 1 uM, 8 h) 2.37 ± 0.37.

As to EDTQRHETYHQQGQCQVLVQRSPW [TCAP], the protein stability index is, setting by setting: (treatment: DMSO) 4.03 ± 0.29; (treatment: MLN4924 1 uM, 8 h) 3.79 ± 0.17.

EDVPLAAKLVDLPCVIESLRTLDK [TAF7L] yielded a protein stability index (treatment: DMSO) of 3.64 ± 0.29 and a protein stability index (treatment: MLN4924 1 uM, 8 h) of 3.48 ± 0.21.

On to EEEEDDLSELPPLEDMGQPPAEEA [FKBP8], for which the protein stability index stood at 5.63 ± 0.2 (treatment: DMSO) and 5.5 ± 0.38 (treatment: MLN4924 1 uM, 8 h).

On to EEFAQAESKDQGKTLALARTMDIP [ALDH8A1], for which the protein stability index reads like this: (treatment: DMSO) 5.13 ± 0.19; (treatment: MLN4924 1 uM, 8 h) 5.38 ± 0.15.

Regarding EEHLSPLDFLHSANFSLGSINQRL [RNF180], the protein stability index runs as follows: (treatment: DMSO) 3.17 ± 0.38; (treatment: MLN4924 1 uM, 8 h) 3.41 ± 0.24.

As for EELRQEWEAKQEKIKSEEIEITFS [FAM50A], the protein stability index is, setting by setting: (treatment: DMSO) 4.98 ± 0.11; (treatment: MLN4924 1 uM, 8 h) 4.95 ± 0.35.

Turning to EELTYIIKQDINSLNKQIAQLQDF [STX5], the protein stability index by setting is: (treatment: DMSO) 2.61 ± 0.21; (treatment: MLN4924 1 uM, 8 h) 2.85 ± 0.26.

EENALWEEERAFWMENNGHVAGEQ [CCDC70]: the protein stability index was determined as 4.99 ± 0.22 (treatment: DMSO) and 5.29 ± 0.13 (treatment: MLN4924 1 uM, 8 h).

Consider EESEPGTLVGNVAQDLGLKMTDLL [PCDHGC5], for which the protein stability index runs as follows: (treatment: DMSO) 4.34 ± 0.081; (treatment: MLN4924 1 uM, 8 h) 4.29 ± 0.55.

Consider EFARKGSCFLINTADRIIRVYDGR [RBBP5], for which the protein stability index by setting is: (treatment: DMSO) 2.23 ± 0.67; (treatment: MLN4924 1 uM, 8 h) 2.24 ± 0.26.

Consider EFKRLASSKAHTSRFISANLPCNK [PTPRD], for which the protein stability index reads like this: (treatment: DMSO) 2.88 ± 0.1; (treatment: MLN4924 1 uM, 8 h) 2.97 ± 0.41.

Take EFPADISSITEAVPSESEPPALQN [NFE2L1]: the protein stability index runs as follows: (treatment: DMSO) 5.31 ± 0.36; (treatment: MLN4924 1 uM, 8 h) 5.44 ± 0.22.

Turning to EFPEDPEFEAVVRQAELAIERCIF [PI4K2A], the protein stability index runs as follows: (treatment: DMSO) 2.72 ± 0.1; (treatment: MLN4924 1 uM, 8 h) 2.96 ± 0.22.

EFQPAKCTDKENALKLFPVQPCSA [FAM189A2] yielded a protein stability index (treatment: DMSO) of 3.97 ± 0.17 and a protein stability index (treatment: MLN4924 1 uM, 8 h) of 4.03 ± 0.51.

In the case of EHIYDLRSLENYHFVDEHGKDQGI [CLINT1], the protein stability index reads like this: (treatment: DMSO) 4.1 ± 0.25; (treatment: MLN4924 1 uM, 8 h) 4.08 ± 0.1.

EIFVDCDINREQLNDIFHLLKSHT [TPH1] gave a protein stability index (treatment: DMSO) of 2.19 ± 0.3 and a protein stability index (treatment: MLN4924 1 uM, 8 h) of 2.19 ± 0.35.

As to EKEVLRRERAVEWRERAVEKRERA [ZBED2], the protein stability index came to 4.93 ± 0.44 (treatment: DMSO) and 4.95 ± 0.27 (treatment: MLN4924 1 uM, 8 h).

The values are drawn from the supplement of paper PMC10567573.
